# Measurements: FireProtDB (doi:10.1002/pro.5560061014)
# B1: Barstar, P11540 (parent)
# chain: MKKAVINGEQIRSISDLHQTLKKELALPEYYGENLDALWDCLTGWVEYPLVLEWRQFEQSKQLTENGAESVLQVFREAKAEGCDITIILS
# Variants of: B1
# Conditions: Bacillus amyloliquefaciens; pH 7.4; 25 °C; Thermal; DSC; Sodium phosphate 50 mM; reversible: yes; structure 1BTA; whole UniProt chain shown
Variant,heat capacity change of unfolding,unfolding free energy
MKKAVINGEQIRSISDLHQTLKKELALPEYYGENLDALWDCLTGWVEYPLVLEWRQFEQSKQLTENGAESVLQVFREAKAEGADITIILS [C83A],0.86 kcal/mol/K,6.1 kcal/mol

# Same assay, conditions: Bacillus amyloliquefaciens; pH 7.4; Thermal; DSC; Sodium phosphate 50 mM; reversible: yes; structure 1BTA; whole UniProt chain shown
Variant,Tm,"change of melting temperature, mutant - wild type (higher = more stable)",heat capacity change of unfolding,unfolding enthalpy (calorimetric)
MKKAVINGEQIRSISDLHQTLKKELALPEYYGENLDALWDCLTGWVEYPLVLEWRQFEQSKQLTENGAESVLQVFREAKAEGADITIILS [C83A],71.4 °C,-1.4 °C,0.86 kcal/mol/K,66 kcal/mol
